Measured values published in patent US20230321287A1, “RADIOLABELLED GRPR-ANTAGONIST FOR USE AS THERAGNOSTIC” (NOVARTIS AG, priority 2019, published 2023).

Columns and labels:
[1] = molecular target: GRPR (Homo sapiens, UniProt P30550); test: clinical; conditions: dosimetry group, breast cancer N=2
Excerpt: (§1) The primary objective was to characterize preliminary targeting properties of [68Ga] NeoB in patients with malignancies known to overexpress GRPR. The primary efficacy endpoints were: • Number and location of tumor lesions detected by [68Ga]-NeoBOMB1 overall and for each tumor type • Calculation of the ratio tumor/background standard uptake value (SUV) and %injected dose per gram of tissue (ID/g) and calculation of absorbed dose (mGy/MBq) in tumor overall and for each tumor type.
(§2) The dosimetry group comprised only patients with breast cancer (N=2).

[2] = clinical; conditions: human, tumor lesions; for SUV at 2.5 h / SUV at 1.5 h: non-dosimetry group; for SUV at 2.5 h: breast tumors, 2 h 30 minutes; for SUV at 1.5 h: prostatic tumors, 1 h 30 minutes
Excerpt: as §1, §2

[3] = clinical; conditions: human, Relative radiotracer uptake
Excerpt: as §1
Accordingly, highest relative tracer uptake following administration of a bombesin antagonist is expected in pancreas, kidney, and liver (Roivainen et al, 2013).

Chain of GRPR (P30550 whole entry): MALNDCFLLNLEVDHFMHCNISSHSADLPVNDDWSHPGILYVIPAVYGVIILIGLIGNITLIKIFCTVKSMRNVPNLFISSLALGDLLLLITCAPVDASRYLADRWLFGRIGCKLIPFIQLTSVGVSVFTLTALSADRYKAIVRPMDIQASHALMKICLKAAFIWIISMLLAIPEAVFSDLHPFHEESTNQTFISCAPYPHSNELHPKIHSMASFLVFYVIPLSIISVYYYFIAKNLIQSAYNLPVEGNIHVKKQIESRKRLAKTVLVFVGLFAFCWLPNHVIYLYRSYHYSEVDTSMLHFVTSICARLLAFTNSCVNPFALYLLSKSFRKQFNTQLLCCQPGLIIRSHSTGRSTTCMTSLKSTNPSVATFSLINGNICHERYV

CC(C)CC(CC(C)C)NC(=O)[C@H](Cc1cnc[nH]1)NC(=O)CNC(=O)[C@@H](NC(=O)[C@H](C)NC(=O)[C@H](Cc1c[nH]c2ccccc12)NC(=O)[C@H](CCC(N)=O)NC(=O)[C@@H](Cc1ccccc1)NC(=O)COCC(=O)Nc1ccc(CNC(=O)CN2CCN(CC(=O)O)CCN(CC(=O)O)CCN(CC(=O)O)CC2)cc1)C(C)C [[68Ga]-NeoB, metal not drawn]
time at which SUVmax values in lesions peaked [1]: 4 h
time at which SUVmean values in lesions peaked [1]: 15 min
SUV at 2.5 h ([2]; overall (breast tumors), highest SUVmax, overall): 23.1 SUV
SUV at 1.5 h ([2]; overall locations (prostatic tumors), highest SUVmean, overall locations): 11.6 SUV
SUV at 2 h ([2]; soft tissue/visceral (breast cancer), highest SUVmax, dosimetry group, breast cancer N=2, soft tissue/visceral, 2 h): 25.8 SUV
SUV at 4 h ([2]; soft tissue/visceral (breast cancer), highest SUVmax, dosimetry group, breast cancer N=2, soft tissue/visceral): 26.4 SUV
SUV at 0.25 h ([2]; soft tissue/visceral (breast cancer), highest SUVmean, dosimetry group, breast cancer N=2, soft tissue/visceral, 15 minutes): 9.24 SUV
SUV at 4 h ([2]; soft tissue/visceral (breast cancer), highest SUVmean, dosimetry group, breast cancer N=2, soft tissue/visceral): 9.14 SUV
SUV at 2.5 h ([2]; soft tissue/visceral (breast tumors), highest SUVmax, soft tissue/visceral): 22.1 SUV
SUV at 1.5 h ([2]; soft tissue/visceral (prostatic tumors), highest SUVmean, soft tissue/visceral): 14 SUV
tissue uptake at 0.25 h ([3]; Liver, patient FR01-008, 15 min/38.6 min actual): 0.00794 %ID/g
tissue uptake at 0.25 h ([3]; alveolar-interstitial (lungs), total radioactivity, patient FR01-009, 15 min/17.8 min actual): 0.00124 %ID/g
tissue uptake at 1 h ([3]; alveolar-interstitial (lungs), total radioactivity, patient FR01-009, 60 min/60.7 min actual): 0.000884 %ID/g
tissue uptake at 2 h ([3]; alveolar-interstitial (lungs), total radioactivity, patient FR01-009, 120 min/123.9 min actual): 0.000591 %ID/g
tissue uptake at 4 h ([3]; alveolar-interstitial (lungs), total radioactivity, patient FR01-009, 240 min/207.9 min actual): 0.000386 %ID/g
tissue uptake at 0.25 h ([3]; heart wall, total radioactivity, patient FR01-009, 15 min/17.8 min actual): 0.0034 %ID/g
tissue uptake at 1 h ([3]; heart wall, total radioactivity, patient FR01-009, 60 min/60.7 min actual): 0.00207 %ID/g
tissue uptake at 2 h ([3]; heart wall, total radioactivity, patient FR01-009, 120 min/123.9 min actual): 0.00142 %ID/g
tissue uptake at 4 h ([3]; heart wall, total radioactivity, patient FR01-009, 240 min/207.9 min actual): 0.000928 %ID/g
tissue uptake at 0.25 h ([3]; kidneys, total radioactivity, patient FR01-009, 15 min/17.8 min actual): 0.0048 %ID/g
tissue uptake at 1 h ([3]; kidneys, total radioactivity, patient FR01-009, 60 min/60.7 min actual): 0.0038 %ID/g
tissue uptake at 2 h ([3]; kidneys, total radioactivity, patient FR01-009, 120 min/123.9 min actual): 0.00505 %ID/g
tissue uptake at 4 h ([3]; kidneys, total radioactivity, patient FR01-009, 240 min/207.9 min actual): 0.00278 %ID/g
tissue uptake at 1 h ([3]; liver, total radioactivity, patient FR01-008, 60 min/62.6 min actual): 0.00296 %ID/g
tissue uptake at 2 h ([3]; liver, total radioactivity, patient FR01-008, 120 min/123.2 min actual): 0.00197 %ID/g
tissue uptake at 4 h ([3]; liver, total radioactivity, patient FR01-008, 240 min/221.1 min actual): 0.00162 %ID/g
tissue uptake at 0.25 h ([3]; liver, total radioactivity, patient FR01-009, 15 min/17.8 min actual): 0.00866 %ID/g
tissue uptake at 1 h ([3]; liver, total radioactivity, patient FR01-009, 60 min/60.7 min actual): 0.00564 %ID/g
tissue uptake at 2 h ([3]; liver, total radioactivity, patient FR01-009, 120 min/123.9 min actual): 0.00428 %ID/g
tissue uptake at 4 h ([3]; liver, total radioactivity, patient FR01-009, 240 min/207.9 min actual): 0.00317 %ID/g
tissue uptake at 0.25 h ([3]; pancreas, total radioactivity, patient FR01-008, 15 min/38.6 min actual): 0.0471 %ID/g
tissue uptake at 1 h ([3]; pancreas, total radioactivity, patient FR01-008, 60 min/62.6 min actual): 0.0484 %ID/g
tissue uptake at 2 h ([3]; pancreas, total radioactivity, patient FR01-008, 120 min/123.2 min actual): 0.0545 %ID/g
tissue uptake at 4 h ([3]; pancreas, total radioactivity, patient FR01-008, 240 min/221.1 min actual): 0.0628 %ID/g
tissue uptake at 0.25 h ([3]; pancreas, total radioactivity, patient FR01-009, 15 min/17.8 min actual): 0.0215 %ID/g
tissue uptake at 1 h ([3]; pancreas, total radioactivity, patient FR01-009, 60 min/60.7 min actual): 0.0291 %ID/g
tissue uptake at 2 h ([3]; pancreas, total radioactivity, patient FR01-009, 120 min/123.9 min actual): 0.0345 %ID/g
tissue uptake at 4 h ([3]; pancreas, total radioactivity, patient FR01-009, 240 min/207.9 min actual): 0.0374 %ID/g
tissue uptake at 0.25 h ([3]; red (active) marrow, total radioactivity, patient FR01-008, 15 min/38.6 min actual): 0.00331 %ID/g
tissue uptake at 1 h ([3]; red (active) marrow, total radioactivity, patient FR01-008, 60 min/62.6 min actual): 0.00116 %ID/g
tissue uptake at 2 h ([3]; red (active) marrow, total radioactivity, patient FR01-008, 120 min/123.2 min actual): 0.000916 %ID/g
tissue uptake at 4 h ([3]; red (active) marrow, total radioactivity, patient FR01-008, 240 min/221.1 min actual): 0.000346 %ID/g
tissue uptake at 0.25 h ([3]; red (active) marrow, total radioactivity, patient FR01-009, 15 min/17.8 min actual): 0.00186 %ID/g
tissue uptake at 1 h ([3]; red (active) marrow, total radioactivity, patient FR01-009, 60 min/60.7 min actual): 0.00136 %ID/g
tissue uptake at 2 h ([3]; red (active) marrow, total radioactivity, patient FR01-009, 120 min/123.9 min actual): 0.000998 %ID/g
tissue uptake at 4 h ([3]; red (active) marrow, total radioactivity, patient FR01-009, 240 min/207.9 min actual): 0.000722 %ID/g
tissue uptake at 0.25 h ([3]; spleen, total radioactivity, patient FR01-008, 15 min/38.6 min actual): 0.00409 %ID/g
tissue uptake at 1 h ([3]; spleen, total radioactivity, patient FR01-008, 60 min/62.6 min actual): 0.00211 %ID/g
tissue uptake at 2 h ([3]; spleen, total radioactivity, patient FR01-008, 120 min/123.2 min actual): 0.00141 %ID/g
tissue uptake at 0.25 h ([3]; spleen, total radioactivity, patient FR01-009, 15 min/17.8 min actual): 0.00338 %ID/g
tissue uptake at 1 h ([3]; spleen, total radioactivity, patient FR01-009, 60 min/60.7 min actual): 0.00256 %ID/g
tissue uptake at 2 h ([3]; spleen, total radioactivity, patient FR01-009, 120 min/123.9 min actual): 0.00191 %ID/g
tissue uptake at 4 h ([3]; spleen, total radioactivity, patient FR01-009, 240 min/207.9 min actual): 0.00145 %ID/g
tissue uptake at 0.25 h ([3]; tumor lesion T1-lungL, total radioactivity, patient FR01-009, 15 min/17.8 min actual): 0.00367 %ID/g
tissue uptake at 1 h ([3]; tumor lesion T1-lungL, total radioactivity, patient FR01-009, 60 min/60.7 min actual): 0.00455 %ID/g
tissue uptake at 2 h ([3]; tumor lesion T1-lungL, total radioactivity, patient FR01-009, 120 min/123.9 min actual): 0.00481 %ID/g
tissue uptake at 4 h ([3]; tumor lesion T1-lungL, total radioactivity, patient FR01-009, 240 min/207.9 min actual): 0.00385 %ID/g
tissue uptake at 0.25 h ([3]; tumor lesion T2-lungR, total radioactivity, patient FR01-009, 15 min/17.8 min actual): 0.00466 %ID/g
tissue uptake at 1 h ([3]; tumor lesion T2-lungR, total radioactivity, patient FR01-009, 60 min/60.7 min actual): 0.00463 %ID/g
